T1: cyno CD30L LZ (cynomolgus monkey, UniProt A0A7N9CVX7 63-234)
T1 sequence: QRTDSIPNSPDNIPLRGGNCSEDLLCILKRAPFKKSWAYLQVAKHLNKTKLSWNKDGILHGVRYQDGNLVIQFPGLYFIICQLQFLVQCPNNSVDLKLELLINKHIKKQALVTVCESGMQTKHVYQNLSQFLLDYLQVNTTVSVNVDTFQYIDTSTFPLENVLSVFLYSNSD

T2: native human CD30L expressed on Ramos cells (human, UniProt P32971 1-234)
T2 sequence: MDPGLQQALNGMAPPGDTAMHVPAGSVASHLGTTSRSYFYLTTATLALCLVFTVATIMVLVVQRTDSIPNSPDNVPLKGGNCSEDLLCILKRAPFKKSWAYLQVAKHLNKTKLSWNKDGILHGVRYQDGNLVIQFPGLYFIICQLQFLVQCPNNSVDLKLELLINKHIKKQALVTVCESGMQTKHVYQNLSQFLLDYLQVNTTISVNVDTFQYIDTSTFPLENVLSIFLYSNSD

T3: recombinant human CD30L isoleucine zipper (huCD30L LZ) (human, UniProt P32971 63-234)
T3 construct: also called huCD38L LZ; CD30L LZ Hu; not shown: N-terminal isoleucine zipper motif (leucine zipper with leucines replaced by isoleucines)
T3 sequence: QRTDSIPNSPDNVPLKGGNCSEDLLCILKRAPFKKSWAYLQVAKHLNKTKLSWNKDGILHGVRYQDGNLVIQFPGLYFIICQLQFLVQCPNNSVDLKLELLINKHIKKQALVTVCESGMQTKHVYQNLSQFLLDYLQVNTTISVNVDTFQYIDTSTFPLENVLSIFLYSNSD

T4: FLAG-hCD30L-EC (N153Q) treated with PNGaseF (human)
T4 construct: also called FLAG-hCD30L-EC + PNGaseF
T4 chain: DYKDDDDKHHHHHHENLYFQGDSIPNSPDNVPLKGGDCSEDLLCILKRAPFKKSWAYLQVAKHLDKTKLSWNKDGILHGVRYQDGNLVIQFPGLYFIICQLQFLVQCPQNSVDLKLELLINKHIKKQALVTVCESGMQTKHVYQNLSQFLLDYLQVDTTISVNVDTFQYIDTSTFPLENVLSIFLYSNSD


Key:
cyno CD30L LZ = biological target: T1, cyno CD30L LZ; test: cell-based or functional assay
[1] = biological target: T2, native human CD30L expressed on Ramos …; test: cell-based or functional assay
[2] = biological target: T2, native human CD30L expressed on Ramos …; test: FACS, antibody at 50 ug/mL, inhibition of huCD30.Fc-His binding to Ramos cells
Method: The antibodies were also screened for ability to block binding of human CD30L to a soluble human CD30. c molecule. Briefly, human Ramos cells or activated cynomolgus monkey T cells were incubated with anti-CD30L IgGs at 50 μg/mL in blocking buffer for 30 minutes at 4° C. Soluble huCD30. Fc-His was then added at a final concentration of 2.5 ug/mL (30 μL/well) and incubated for 30 minutes at 4° C. Cells were washed ×2 with PBS and incubated with 5 μg/mL of a mouse anti-His monoclonal antibody (30μL/well in blocking buffer) and incubated for 30 minutes at 4° C. After washing ×2 with PBS, cells were incubated with anti-mouse IgG-PE (1:50 in PBS; BD Pharmingen, San Diego, Calif.) for a further 30 minutes at […]. Cells were then washed ×2 with PBS and prepared for FACs analysis.

[3] = biological target: T3, recombinant human CD30L isoleucine …; test: blocking of human CD30L LZ binding to K299 cells (CD30)
[4] = biological target: T2, native human CD30L expressed on Ramos …; test: FACS, native human CD30L on Ramos cells
Method: The supernatants were purified and recombinant antibodies were expressed as IgG1 and IgG2 constructs. The antibodies were rescreened for binding to native human and cynomologous monkey CD30L. Briefly, human Burkitt's lymphoma Ramos cells (3×10⁵/well) were incubated in round-bottomed 96-well microtiter plates (Costar® 96 well plate (Corning; Acton, Mass.) with a titration (10 μg/mL to 3.2 ng/mL final concentration) of anti-CD30L IgG antibodies in blocking buffer (PBS containing 0.02% sodium azide, 2% normal goat serum and 1% normal rabbit serum). Human […] fusion protein was included as a positive control for binding. Cells were incubated for 30 minutes at 4° C. then washed ×2 with PBS and incubated for a further 30 minutes at 4° C. with 30 μL/well of anti-hu IgG-biotin (1:50 in blocking buffer; Jackson Immunoresearch, West Grove, Pa.). After washing ×2 with PBS, cells were incubated for 30 minutes at 4° C. with 30 μL/well (1:50 dilution in PBS) of Streptavidin-Phycoerythrin (PE; Molecular Probes, Eugene, Oreg.). Cells were washed 2× with PBS and prepared for FACs analysis.

[5] = biological target: T4, FLAG-hCD30L-EC (N153Q) treated with …; test: HX-MS, 6 uM hCD30L with 6.6 uM mAb

| Binder | IC50, inhibition of IL-8 release (K299 single cell assay with cyno CD30L LZ) (cyno CD30L LZ) | IC50, inhibition of IL-8 release (K299/Ramos dual cell assay) [1] | % inhibition [2] | IC50 [3] | EC50 [4] | binding result [5] |
| --- | --- | --- | --- | --- | --- | --- |
| Antibody E (antibody, V domains shown, also called mAb E) VH: QVQLQESGPRLVKPSETLSLTCTVSGGSITNNYWSWIRQPAGKGLEWIGRVYSSGLTNYKPSLKSRVTMSVDTSKNQFSLRLNSVTAADTAVYYCARERATVTTRYHYDGMDVWGQGTSVTVSS VL: QSALTQPASVSGSPGQSITISCTGSSSDIGTYNYVSWYQQYPGKAPELMIYEVNNRPSGVSDRFSGSTSGNTASLTISGLQANDEADYYCSSYSSSSTWVFGGGTKLTVL | 5.4 nM | 0.045 nM | 80% | 2.1 nM | 3.3 nM | binds |
| Antibody A (antibody, V domains shown, Human antibody (XenoMouse); also called mAb A; anti-hCD30L A) VH: QVQLQESGPGLVKPSETLSLTCTVSGGSISSYIWSWIRQPAGKGLEWIGRIYASGNTNYNPSLKSRVTMSVDTSKNQFSLKLSSMTAADTAVYYCARDYRVAGTYYYYYGLDVWGQGTTVTVSS VL: QSALTQPASVSGSPGQSITISCTGTSSDVGVYDYVSWYQQHPGKAPKLMIYEVSNRPSGVSNRFSGSKSGNTASLTISGLQTEDEADYYCSSYTSRSTWVFGGGTKLTVL | 2 nM | 0.028 nM | 68% | 1.5 nM | 1.7 nM |  |
| Antibody F (antibody, V domains shown, also called mAb F) VH: QVQLQESGPGLVKPSETLSLTCTVSGGSISSYYWSWIRQPAGKGLEWIGRIFASGSTNYNPSLRSRVTMSRDTSKNQFSLKLSSVTAADTAVYYCAKERVGVQDYYHYSGMDVWGQGTTVTVSS VL: QSALTQPASVSGSPGQSITISCTGTSSDVGLYNYVSWYQQQPGKAPKLMIYEVSKRPSGVSNRFSGSTSGNTASLTISGLQADDEADYSCSSYTSSSTWVFGGGTKLTVL | 5.5 nM | 0.06 nM |  | 2 nM | 2.3 nM | binds |
| Antibody B (antibody, V domains shown, also called mAb B) VH: QVQLQESGPGLVKPSETLSLTCTVSGGSISSYYWTWIRQPAGKGLEWIGRIYTSGITNYNPSLKSRVTMSVDTSKNQFSLKLSSVTAADTAVYYCARERVVGASRYYYYGVDVWGQGTTVTVSS VL: QSALTQPASVSGSPGQSITISCTGTSSDVGLYNYVSWYQQHPDKAPKLMIFEVNNRPSGVSNRFSGSNSGNTASLTISGLQAEDEADYYCSSYTSSSTWVFGGGTKLTVL | 5.6 nM | 0.072 nM | 70% | 2.5 nM | 3.1 nM |  |
| Antibody D (antibody, V domains shown, also called mAb D) VH: QVQLQESGPGLVKPSETLSLTCTVSGGSISSYSWSWIRQPAGKGLEWIGRTSTSGRNNYNPSLKSRVTMSVDTSKNQFSLKLNSVTAADTAVYYCARDFTIAARRYYYYGMDVWGQGTTVTVSS VL: QSALTQPASVSGSPGQSITISCTGTSSDIGLYNYVSWYQQHPGKAPKLIIYEVINRPSGVSNRFSGSESGNTASLTISGLQAEDEANYYCSSYTSSSTWVFGGGTKLTVL | 5.4 nM | 0.062 nM | 55% |  | 3.3 nM | binds |
| Antibody C (antibody, V domains shown, also called mAb C) VH: QVQLQESGPGLVKPSETLSLTCTVSGGSISSYYWTWIRQPAGKGLEWIGRIYTSGITNYNPSLKSRVTMSVDTSKNQFSLKLSSVTAADTAVYYCARERVVGASRYYYYGVDVWGQGTTVTVSS VL: QSALTQPASVSGSPGQSITISCTGTSSDIGLYDYVSWYQQHPDRAPKLIIFEVNNRPSGVSYRFSGSNSGNTASLTISGLQAEDEADYYCSSYTSSSTWVFGGGTKLTVL | 3.9 nM | 0.036 nM | 88% | 1.9 nM | 1.7 nM |  |

Reference: patent publication US20220112295A1 (Novo Nordisk, published 2022)
